Measurements taken from US20090285813A1 (MMRGLOBAL, published 2009).
Residue numbers refer to the chain shown, from its start.

Assays:
human CD20 [1] = biological target: T1, human CD20 (human, UniProt P11836 1-297); test: anti-CD20 cellular ELISA, supernatant; rank 4 of 29
T1 construct: whole, on cells; Target always presented on cells; also called CD20 antigen
T1 sequence (looked up): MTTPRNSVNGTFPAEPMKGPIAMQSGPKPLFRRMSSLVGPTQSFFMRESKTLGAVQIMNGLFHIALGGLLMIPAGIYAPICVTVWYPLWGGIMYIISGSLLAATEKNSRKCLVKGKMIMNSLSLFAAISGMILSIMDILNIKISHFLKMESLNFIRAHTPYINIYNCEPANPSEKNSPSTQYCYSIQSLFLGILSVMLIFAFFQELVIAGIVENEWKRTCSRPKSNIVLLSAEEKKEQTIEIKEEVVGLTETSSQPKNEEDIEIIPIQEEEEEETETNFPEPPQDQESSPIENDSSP

human CD20 [2] = biological target: T1, human CD20; test: anti-CD20 cellular ELISA, supernatant; rank 8 of 29
human CD20 [3] = biological target: T1, human CD20; test: anti-CD20 cellular ELISA, supernatant; rank 1 of 29
human CD20 [4] = biological target: T1, human CD20; test: anti-CD20 cellular ELISA, supernatant; rank 2 of 29
human CD20 [5] = biological target: T1, human CD20; test: anti-CD20 cellular ELISA, supernatant; rank 5 of 29
human CD20 [6] = biological target: T1, human CD20; test: anti-CD20 cellular ELISA, supernatant; rank 6 of 29
human CD20 [7] = biological target: T1, human CD20; test: anti-CD20 cellular ELISA, supernatant; rank 3 of 29
human CD20 [8] = biological target: T1, human CD20; test: anti-CD20 cellular ELISA, supernatant; rank 7 of 29

B1: anti-CD20 HuFR variant 4 (light chain BD22088, heavy chain BD20337) (antibody, human IgG1, kappa)
heavy: not shown
light: DIVMTQSPLSLPVTPGEPASISCRASSSLSFMHWYQQKPGQPPKLLIYATSNLASGVPSRFSGSGSGTDFTFTISSLQPEDIATYYCHQWSSNPLTFGQGTKVEIKRTVAAPSVFIFPPSDEQLKSGTASVVCLLNNFYPREAKVQWKVDNALQSGNSQESVTEQDSKDSTYSLSSTLTLSKADYEKHKVYACEVTHQGLSSPVTKSFNRGEC
notes: Full-length IgG, unpurified HEK-293 supernatant; also called LC & HC combination 4
- binding result (human CD20 [1]): binds

B2: anti-CD20 HuFR variant 8 (light chain BD22095, heavy chain BD20337) (antibody, human IgG1, kappa)
heavy: not shown
light: B1 light with D1E, L9A, S10T, P12S, T14S, P18R, S20T, I21L
notes: Full-length IgG, unpurified HEK-293 supernatant; also called LC & HC combination 8
- binding result (human CD20 [2]): binds

B3: anti-CD20 HuFR variant 1 (light chain BD22084, heavy chain BD20332) (antibody, human IgG1, kappa, V domains shown)
VH: QVQLVQSGAEVKKPGASVKVSCKASGYTFTSYNMHWVRQAPGKGLEWVGAIYPGNGDTSYNQKFKGRVTISADKSISTAYLQWSSLKASDTAMYYCARSHYGSNYVDYFDYWGQGTLVTVSS
VL: DIVMTQSPLSLPVTPGEPASISCRASSSLSFMHWYQQKPGQPPKLLIYATSNLASGIPARFSGSGSGTDFTLTISSLEPEDFAVYYCHQWSSNPLTFGQGTKVEIKR
notes: Full-length IgG, unpurified HEK-293 supernatant; also called LC & HC combination 1
- binding result (human CD20 [3]): binds

B4: anti-CD20 HuFR variant 2 (light chain BD22085, heavy chain BD20335) (antibody, human IgG1, kappa, V domains shown)
VH: QVQLVQSGAEVKKPGASVKVSCKASGYTFTSYNMHWVRQAPGKGLEWMGAIYPGNGDTSYNQKFKGRFTISRDNAKNSLYLQMNSLRAEDTAVYYCARSHYGSNYVDYFDYWGQGTLVTVSS
VL: DIVMTQSPDSLAVSLGERATINCRASSSLSFMHWYQQKPGQAPRLLIYATSNLASGVPSRFSGSGSGTDFTLTISSLQPEDFATYYCHQWSSNPLTFGQGTKVEIKR
notes: Full-length IgG, unpurified HEK-293 supernatant; also called LC & HC combination 2
- binding result (human CD20 [4]): binds

B5: anti-CD20 HuFR variant 5 (light chain BD22087, heavy chain BD20335) (antibody, human IgG1, kappa, V domains shown)
VH: B4 VH
VL: EIVLTQSPGTLSLSPGERATLSCRASSSLSFMHWYQQKPGKAPKLLIYATSNLASGVPSRFSGSGSGTEFTLTISSLQPDDFATYYCHQWSSNPLTFGQGTKVEIKR
notes: Full-length IgG, unpurified HEK-293 supernatant; also called LC & HC combination 5
- binding result (human CD20 [5]): binds

B6: anti-CD20 HuFR variant 6 (light chain BD22089, heavy chain BD20335) (antibody, human IgG1, kappa, V domains shown)
VH: B4 VH
VL: B5 VL with G9A, K41Q, A42P, E69D, L72F, D80E, F82I
notes: Full-length IgG, unpurified HEK-293 supernatant; also called LC & HC combination 6
- binding result (human CD20 [6]): binds

B7: anti-CD20 HuFR variant 3 (light chain BD22086, heavy chain BD20335) (antibody, human IgG1, kappa, V domains shown)
VH: B4 VH
VL: B3 VL with P42A, K44R, I57V, A59D, E78Q, P79A, F82V
notes: Full-length IgG, unpurified HEK-293 supernatant; also called LC & HC combination 3
- binding result (human CD20 [7]): binds

B8: anti-CD20 HuFR variant 7 (light chain BD22090, heavy chain BD20337) (antibody, human IgG1, kappa, V domains shown)
VH: B3 VH with K43Q, V48M
VL: DIVMTQSPLSLPVTPGEPASISCRASSSLSFMHWYLQKPGQSPQLLIYATSNLASGVPDRFSGSGSGTDFTLKISRVEAEDVGVYYCHQWSSNPLTFGQGTKVEIKR
notes: Full-length IgG, unpurified HEK-293 supernatant; also called LC & HC combination 7
- binding result (human CD20 [8]): binds
